Laboratory results reported in the DeepSol protein solubility set.

Test: soluble on expression in E. coli; label from the status in PepcDB or PDB records

Soluble on expression in E. coli, not soluble:
MGSDKIHHHHHHMTTTYPDFLGNSSLQTDTEHWEMEGGAQEVSVTYVLDTSVLLSDPLSLTRFAEHDVVLPIVVITELEAKRHHPDLGFFARQALRMLDELREIHGDLSKPLPIGDEGGHIHVELNHQNTGSLPVGFRLGDNDTRILAVAKNLQEEGHNVVLVSKDLPMRIKASASGIAAQEYRAALARDRGYTGMTHANITDDQLSELYDTGEVRIEELEKLPVNHGFTLKSNSGSALGRMNSDKIIELVPGDQQVFGISGRSAEQRVAIDLLNDDAVGIVSIGGPAGTGKSALALCAGLEAVMERRIQRKIIVFRPLFAVGGQELGYLPGDQEEKMGPWAQAVFDTLSSMVSQNIIDEALSRGLIEVLPLTHIRGRSLHDAFVIVDEAQSLERNVLLTMLSRIGQNSRVVLTHDVAQRDNLRVGRYDGIVSVVEALKDHELFGHITLQRSERSRIAELVTQVLDAPSL
MGSDKIHHHHHHMTVAQLLIPQMYSSKSTGEAVGRHPLNFYESPSWFTTELLRHVRLSGVVGEPCVGMGAIASLLSVWPYTKQMWTNDIDPHKSANYQMDATLSESWAKFPDCDWICTNPPYSEFAAPIIKNAYCKAHVGVAAFLLTSFLEPCDDRADFLQQHPPSLVLIMPRFCFRKDKRGTRWATDNVTISCFVWDKRATGQQIIVRPKSAIAGFYKNPEQAISQERAEKIVRAIAKGEL
MGSDKIHHHHHHMTVIDLSALDPPDLVETLDFEAAYQYKLQHFKSIYPDWTAALESDPVVKLIELAAYDEVRFRARVNDAGRAVLLAYSTGADLEHLAVLWNLQRETVDPGDPEAHPPVPATRERDERLRLRTQMGIERSSTAGPFGAYRSLAMDASPDVADVRVDRPEAGVVRVVVKSYSNGGVASAALLDTVRRALSPEDRRPLNDSLLVVAARPVNYAIVADVYIGRGPDPGVVLAARRQDLDIAVAAGEALRVGMPRSAVTGALHPKASGVVRVDLKLPAADVVCAIDQFARCTSIVLNPKVADDD
MGSDKIHHHHHHMTVLILTNPFDITADDVILRLTERGVPVVRLDPADFPQQVVLHSEIGGNGWTGTLTTPHRILDLSTVTGIWYRRPRKFRLPAQMSQAEYEFAATEARRGFGGIINSLTGWINHPSAIGRAEYKPYQLHHAVQAGLNVPRTLITNDPKQAKGWCARVGDVVYKPLSAPSWLENGDTYVVFTTPITPDQWGDPAIGRTAHMFQQRLDKEFEVRLTMVDGKAFPAAIHAHSDAARIDWRSDYDALTYSIPTVPQRVLTGARDLLRRLHLRYAALDFIVSPDGRWHFLEVNPNGQYGWIEEHTGQPISDAIADALTRKEN
MGSDKIHHHHHHMVAVPQAHPLSVAEYLQFEAASEIKHEYRAGEVYAMADITDVHNTIVGNWVALIRSHVRGSSDRVYCSAMQVWLQQANCIYYPDLLVTCDPRDQETVNYKRFPKLIVEVLSPSTEAFDRGDKFADYQTLETLEEYVLISTSRQRVDCFRRSLEGVWTLQFYLPNAEVLPLRSIGLEVRLSDLYEDVTLPAPPSIPESLEESR
MGSDKIHHHHHHMVDCDRIDRLIAAVPPALALRAGLDLGIFTRLGGDAATADSLGAALKVEPDRLSRLLYALASIDLLEVKDGQFRNGAEASAFLDASKPTYRGGDHALLRELWGADLLTAESLRQNRPAALHDFSEAGPEAAAAFSRMLAPGGVIFGRHLAREIDLSAIGSVIDIGGGAGTILVGLRERRRQIAATLMELPTVAAVAPAILSEYGADDVIVEEGDITVAPSIGRHDLAILKAVVQVLPPDQARNAILNAARCLTPGGEIAIAGWGVVDDDRLGPSEGVFLNLTFLNLYRHGESYTEGQYRAWMTEAGFRNISRSRLTDGTALFRGRLTD
MGSDKIHHHHHHMVDVKRNIFLILDDRELTSEEVRSLVGTRRYSEISLKRRSLLEHLRAALPAWAQTRLVHIKDNNDVVALRNVLESCGEQSPALVIAGRAGFLQPERLTQLIERLPYAEEDFTDRLYRPLLVYLKSVHDLHSCWQQFEAEPLHLWPKAWQDCQRLESLEPLDLARIRDFLTFTGGATATRHFNEVLIDNYYYTKRSSDKQKMLAEYSFYGLAPESMRPWLIQPFEFREEGGGASYKMLRYFLADAALQWVHGAFDRDTFMAFIERLLFFIAERPRKACAREESAAVARDMFVTKVSARIEAFLAMEEGRRINALAASASPMLDVQAMLKRYLALYQRHERAFAFDYMVVGHGDPCFSNVLYDQQRYLLKLIDPKGAATEADLWTNPLYDLCKISHSVLGDYDFINNGLYRVGFTDANALKLAFSHRNHDDLKPIFSSLVGKMGMDYRIMRLGEASLFLSMLPLHIDYPNKILAFMLKAHEILREVEGEARV
MGSDKIHHHHHHMVKDKNDVGPKTVAILGAGGKMGARITRKIHDSAHHLAAIEIAPEGRDRLQGMGIPLTDGDGWIDEADVVVLALPDNIIEKVAEDIVPRVRPGTIVLILDAAAPYAGVMPERADITYFIGHPCHPPLFNDETDPAARTDYHGGIAKQAIVCALMQGPEEHYAIGADICETMWSPVTRTHRVTTEQLAILEPGLSEMVAMPFVETMVHAVDECADRYGIDRQAALDFMIGHLNVEIAMWFGYSPKVPSDAALRLMEFAKDIVVKEDWREALNPAKVKQAAELIAGK
MGSDKIHHHHHHMVKRMHCNINLKYGVIMKKDCYTLRISLKPGFINAEQLKAIAYVIENFGDNKAHITTRQGIEFKISPEHLEEVEKILNNVGLNLGSTGNRVRQVVSCIGLECYNAIGDSVSLARRIHEEFEGVWVPRKVKINVSGCPNSCTFHRFCDIGICYRYKITINKEICTNCGKCKDFCDLNAIDWERKIIKDNCTGEGKCTGLCNAFKAERVISIFVGGKGGRIYKEGKHLIDLKNEDDVLFVIDELISLYAKFGKGRMADFVENYGIENLRNNIKELIK
MGSDKIHHHHHHMVKSANLLHVSQPAVTKTVRELEEILGVSLFEREGRGIRITRYGEVFLRHAGATLAALRHAVDSVSQEAAKAGPPVRVGALPTVATRIMPQAMTAFLAENTGSPIKIVTGDNSVLLEQLRIGELDLVVGRLAAPEKMAGFSFEHLYSEPVVFVVRAGHPLLTGETAPFERMRDFPVLMPTRNSIIRPLVDYFLIANGVATLPNQIETVSDSFGRAFLKISDAVWVISEGVVAGDIAEGTICALPIDCSPTRGPVGLTVRADAMATLPQSLLMQAIRDAAAAIMP
MGSDKIHHHHHHMVQREKNVVNEQEIELIIGNSNSNFSGVTSTMLQVLSHEQSLINLRVMGKHHLPDESLSISFWQVANLSTKPLPKGKFRIFHARRVDEMIQALLLKYVFRVKLKIVFSSAAQRYRSGFTLWLTDRMDAVLAMCKASASYLHRKPDAIIYHGVKTDIYLPATDKSKAWQSLGLLPENSAKGKKGIAILGRVRKQKGVHLFVESCIDILKDRPDYTAVIVGSISSSNESFVNELQSKIDQAGLTERIVFAGEQNFADIPKIFSSLSLVVALSENEGFGLTILEAMSSGAAVLASEAGAWPEVVRQGVDGYVVPINDLDAVTEKMSLLLADEEKLMQMGRDGRERVLEHYSVEREAKELVTFFRSLM
MGSDKIHHHHHHMVRDIDKTTSLHLNNEAQFLCFRLDAEKDAQLYGMNIFKIREIIHYDGEVTEILGGSDGVMLGFLSVRGESIPLVDVKRWLHYNANDPSRDLKECSVKDDHNLVIVCHFSNHSIALKVLKIERIIHKNWTEISAGDKQGINEEGKLSAITRFDEERVVQILDVEKMISDVFPSLKDLDDLTLRCIEAIQSQKLILIAEDSLSALKTLEKIVQTLELRYLAFPNGRELLDYLYEKEHYQQVGVVITDLEMPNISGFEVLKTIKADHRTEHLPVIINSSMSSDSNRQLAQSLEADGFVVKSNILEIHEMLKKTLS
MGSDKIHHHHHHMVSRSPFESFQWKSDIFNCESTDIDNFYLLLEQEMTRLGMVEKNLGEVGKYKVSLYQSPAAKSGLPSLLISAGFHGEESAGPWGLLHFLSEASADLFERVNLSLLPLVNPTGFSRGHRFNKYGENPNRGFVFENGKPKANEHTSVEGKLLLDHAQLLIAACRDGILTCHEDVLSREAYVYSFEPSQVPGRFSLDLRDTLGGYFPIAVDGEIDACPVKDGLIFNHFDTSFEACLVRSGARVGACTETPALQNFDQRVLANSAAMTHFLALCAPLCD
MGSDKIHHHHHHMVSWVRGATKSLLGCSENSRRTKGNDMAVIFKGIPSIGNGLTDDTVLWRYLDTAKFLDLLHNRTLFFCRGDRFADKYEGAFTESIKHAIEEAFRKNEINSSVAEFKTRLRERVFVNCWHQSRDDSMAMWSLYGKSSAAVAITTTVGQLRDAIKLAKLPYAINIAKVEYVKHWRDPQLVFKPYSNVFAYKLKAYDYEKEVRVIIDRFHENEDISALPDGMSAAIPLETLLRSIVVCPEAAPWFVELVGDVVHKYGVSAPVNRSKLAFDPK
MGSDKIHHHHHHMVVLHSKGGFFLEILKVVDLKKHYGDVKAVDGISFTVERGTVFSFLGPNGAGKTTTVEILEGLRKKDSGEIYYFGERKDVLDRETKRKIGVCLQKSAFFENLTVWETLKLFRGLYGTGLDLKEVMGLFSLENIEKKMVKTLSGGQLQRLAVAVAFINDPEIVFLDEPTTGLDPQARRQIWDTIEHFKNLGKTIFLTTHYMEEAERLSDHVCIIDHGKIIAEGTPSSLISSSGLKTVVEFDCDQDVNVRYLEKKENHYVVETDAPEELIKDLLKNWNVSNIVIRKPNLEDVFLKLTGRDLRE
MGSDKIHHHHHHMWYMRWEGVSDGLKVTAGSVIQRDDLVQYTTTDDATSSGGVLRVPIACSSAGAVGNADDGTALILVTPVNGLPSSGVADTLTGGFDTEELETWRARVIERYYWTPQGGADGDYVVWAKEVPGITRAWTYRHLMGTGTVGVMIASSDLINPIPEESTETAARQHIGPLAPVAGSDLYVFRPVAHTVDFHIRVTPDTPEIRAAITAELRSFLLRDGYPQGELKVSRISEAISGANGEYSHQLLAPVDNISIAKNELAVLGTISWT
MGSDKIHHHHHHMYFITLSRQLGTKGTEIAKLVAKELHYDFYDTEAIEKKAGEMGFLDDIRKVDDKPPSPLKQLFSWQTETCLEHLYTVIYDLSRYGNAVVLGRGGNMLFRPIPHALHVRVIASHEKRVQNLLEKVYRRETAVMIMEKSDQERSSFIRFAFNRDWGDPELYDMVLNMDNMTVRSAADTILRAARLRESQCPSRDGMSPLNLMELTAKVKAALANAGFPSNYASPFVNAPGKVRLTGIVHDPREKLAAEMTALKVEGVESVENRIQIAGS
MGSDKIHHHHHHMYKKSVDLSLESVLVEIDENKKLMPSRNATVQPVALMRLGLFLPSLKRKGKDTENISIDASSELQSLELARAEGYTDIRITGPRLSMETDFKVWVGIILAFSKYGLNSSTIELPFSEFATFCGFSSKDKDKGLRTRLADSLIRLRSTTIKLASEKDRNGVVSGLLSRGKWDEKDDIMELTADESLWELYQFDRQVLLQMFIIRQLANKGTAQALYTFIESLPERPIPLSFARIKRRLMLTSPNNQQNRVINKAIDELKAVGYLDGDVVKKDGEWHLIITRRTPRPDIKAMSEALKDGE
MGSDKIHHHHHHMYNLGKGVQECTETSLLTALGGMERRNLSELDTTLTSDNLPVVSHDFNTWRISTLPDRLIRELHSADVKNIPVIIREVSNGEITESYTVTNDIIPFLEPLLDKVFDVNPGATFFLDGRDFEAHIITAWLSRRPKYRQRVVLLFYTFEYSSGEAFFDAVKQVSPEPDWRETVALMPVIFPQELPRLAKLIDLSDIAVEDLYEGGKIWIDSMLRQPMRVVAVHIVMARVKPEQLGLCDKPEIVRAFNADYAAVRLAYYVKDNPEVRKMRPHLKLATATRCYDFSAQLENGEKAEFSINIRTGRPMPRETDERKYIRRGYGIPGNAAAIADWVISDRSEDEMSFWEWRNKGVPRRVDHHCPHLDVIEQDGKSVP
